From article PMC5779224, “Autoinhibition of ankyrin-B/G membrane target bindings by intrinsically disordered segments from the tail regions” (eLife, 2017)

Tests used:
[1] = target: T1, AnkG 38–903 (MBD + AI-c + AI-b) (rat, UniProt O70511-1 38-903); assay: ITC; VP-ITC MicroCal, 25 °C; proteins in 50 mM Tris-HCl pH 7.8, 1 mM DTT, 1 mM EDTA with 100 mM or 500 mM NaCl as required; who was titrated is not told; conditions: both partners purified
T1 construct: numbers count on: rat AnkG NM_001033984.1 (MBD-UPA); also called extended AnkG MBD; source: E. coli BL21 (DE3), purified (Ni2+-NTA, size exclusion)
T1 sequence (looked up): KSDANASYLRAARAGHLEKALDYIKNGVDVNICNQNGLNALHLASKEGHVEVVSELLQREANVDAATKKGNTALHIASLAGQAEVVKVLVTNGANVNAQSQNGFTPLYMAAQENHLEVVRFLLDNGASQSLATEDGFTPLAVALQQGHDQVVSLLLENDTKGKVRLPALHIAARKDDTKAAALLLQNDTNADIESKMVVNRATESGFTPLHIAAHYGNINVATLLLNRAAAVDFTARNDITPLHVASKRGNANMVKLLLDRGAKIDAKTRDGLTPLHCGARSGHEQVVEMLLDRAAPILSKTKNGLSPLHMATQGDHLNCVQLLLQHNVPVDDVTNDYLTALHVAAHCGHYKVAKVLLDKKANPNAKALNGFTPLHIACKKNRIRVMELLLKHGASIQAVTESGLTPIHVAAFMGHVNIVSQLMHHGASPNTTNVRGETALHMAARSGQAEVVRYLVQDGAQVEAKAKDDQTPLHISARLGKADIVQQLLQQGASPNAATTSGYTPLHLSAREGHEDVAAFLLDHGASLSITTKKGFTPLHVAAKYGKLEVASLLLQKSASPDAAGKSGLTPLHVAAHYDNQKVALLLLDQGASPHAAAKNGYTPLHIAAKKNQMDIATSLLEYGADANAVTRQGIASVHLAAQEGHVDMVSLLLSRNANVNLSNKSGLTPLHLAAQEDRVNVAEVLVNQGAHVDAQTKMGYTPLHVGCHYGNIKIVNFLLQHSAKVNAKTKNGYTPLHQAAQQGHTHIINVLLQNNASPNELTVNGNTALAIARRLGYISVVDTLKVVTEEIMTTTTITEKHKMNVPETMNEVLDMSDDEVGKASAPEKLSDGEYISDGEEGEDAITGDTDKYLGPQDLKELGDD

[2] = target: T2, AnkB 28–847 (MBD + partial AI-c) (human, UniProt Q01484-2 28-847); assay: as above; conditions: both partners purified
T2 construct: ankyrin-B (AnkB), human 220 kDa isoform, residues 28-847: MBD and a short 20-residue linker; numbers count on: human 220 kDa AnkB NM_020977.3; also called extended MBD with a short 20-residue linker; source: E. coli BL21 (DE3), purified (Ni2+-NTA, size exclusion)
T2 sequence (looked up): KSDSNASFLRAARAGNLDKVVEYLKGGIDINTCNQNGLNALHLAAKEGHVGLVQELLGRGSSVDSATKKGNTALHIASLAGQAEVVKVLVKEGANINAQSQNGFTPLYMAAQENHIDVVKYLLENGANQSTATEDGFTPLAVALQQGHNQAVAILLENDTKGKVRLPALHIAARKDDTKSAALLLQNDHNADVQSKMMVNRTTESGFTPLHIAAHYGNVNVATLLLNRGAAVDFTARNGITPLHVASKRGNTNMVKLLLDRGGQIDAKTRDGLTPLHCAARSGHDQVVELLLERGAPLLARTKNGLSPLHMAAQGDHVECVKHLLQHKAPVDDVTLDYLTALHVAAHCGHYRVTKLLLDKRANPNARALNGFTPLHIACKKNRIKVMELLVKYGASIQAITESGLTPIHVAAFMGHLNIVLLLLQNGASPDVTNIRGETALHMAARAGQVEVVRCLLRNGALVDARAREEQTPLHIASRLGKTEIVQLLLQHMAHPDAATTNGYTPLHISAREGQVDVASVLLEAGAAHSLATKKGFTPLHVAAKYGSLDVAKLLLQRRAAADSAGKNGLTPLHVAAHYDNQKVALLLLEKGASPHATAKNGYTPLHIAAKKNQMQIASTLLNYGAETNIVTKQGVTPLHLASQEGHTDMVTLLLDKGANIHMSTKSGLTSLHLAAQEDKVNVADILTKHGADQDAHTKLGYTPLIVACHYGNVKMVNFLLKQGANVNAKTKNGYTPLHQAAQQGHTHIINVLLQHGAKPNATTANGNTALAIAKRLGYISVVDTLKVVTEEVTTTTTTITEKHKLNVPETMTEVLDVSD

B1: Nav1.2 (aa 1035–1129) (domain or fragment, mouse, UniProt B1AWN6 1035-1129, looked up)
chain: KALDEIKPLEDLNNKKDSCISNHTTIEIGKDLNYLKDGNGTTSGIGSSVEKYVVDESDYMSFINNPSLTVTVPIAVGESDFENLNTEEFSSESDM
notes: source: E. coli BL21 (DE3), purified (Ni2+-NTA, size exclusion)
[1]
  binding result: binds
[2]
  binding result: binds
